“And” between values parts separate entries of the source, which are not always exact repeats. Equal values may be shown once.
What was measured:
[1] = tested on: bilateral renal ischemic injury; experiment: 22 min bilateral renal ischemic injury after mesoporphyrin pre-treatment; assay type: in vivo, mice; conditions: 1 umole 18 hrs before 22 min bilateral ischemic injury
Protocol: FIG. 31. Tin mesoporphyrin pre-treatment mitigates renal ischemic injury. Mice received either 1 umole of Sn mesoporphyrin (MeP; n, 3) or vehicle (n,4) and 18 hrs later they were all subjected to 22 min of bilateral ischemic injury.
Protection against acute kidney injury. Mice are treated with MesP alone (0.1-20.5 umoles), FeS alone (1 mg), MesP+FeS, or vehicle injection. Eighteen hrs post injections, the mice are anesthetized with pentobarbital. The abdominal cavities are opened. The renal pedicles are identified, and both are occluded with microvascular clamps. Body temperature are maintained at 36-37° C. throughout. Following 22 minutes of bilateral renal ischemia, the clamps are removed, uniform reperfusion are confirmed by the loss of tissue cyanosis, and then the abdominal cavities are closed in two layers with silk suture. Eighteen hrs later, the mice are re-anesthetized, the abdominal cavities are re-opened, and terminal blood samples are obtained from the vena cava. AKI severity are determined by degrees of BUN and plasma creatinine increases.

[2] = tested on: HO-1 protein; experiment: Tin mesoporphyrin: renal cortical and plasma HO-1 protein (ELISA); assay type: in vivo, mice
Excerpt: FIG. 29. Tin mesoporphryin effects on renal cortical and plasma HO-1 protein levels at 4 and 18 hrs post 1 umole injection. By 4 hrs and 18 hrs post Sn mesoporphyrin injection, an approximate 3 fold and 5 fold increases in renal cortical HO-1 levels over baseline (BL) were observed, as detected by ELISA. Plasma HO-1 levels rose ˜15 fold by 18 hrs post injection (n, 3-4 per group).

[3] = tested on: haptoglobin; experiment: Tin mesoporphyrin: renal cortical and plasma haptoglobin levels; assay type: in vivo, mice; conditions: 4 and 18 hrs post 1 umole injection
[4] = tested on: haptoglobin mRNA; experiment: SnPP vs. SnMeP: renal cortical haptoglobin mRNA induction (RT-PCR); assay type: in vivo, mice; conditions: 1 umole, 4 hrs post injection, n 3
Excerpt: (§1) FIG. 28. Comparison of SnPP vs. SnMeP effects on renal cortical HO-1 and haptoglobin mRNA induction 4 hrs post agent injection. Mice received either 1 umole tin protoporphyrin (SnPP), tin mesoporphyrin (SnMeP), or vehicle (n, 3 each) and 4 hrs renal cortical RNA was extracted and subjected to RT-PCR.

[5] = tested on: HO-1 mRNA; experiment: SnPP vs. SnMeP: renal cortical HO-1 mRNA induction (RT-PCR); assay type: in vivo, mice; conditions: 1 umole, 4 hrs post injection, n 3
Excerpt: as §1

[6] = set-up: species or system mice; conditions: mouse, in vivo, iv
[7] = tested on: HO-1 protein; experiment: Renal cortex HO-1 protein (ELISA) after IV myoglobin, SnPP or both; assay type: in vivo, CD-1 mice; conditions: 4 hr IV; 1 mg myoglobin, 1 μmole SnPP
Excerpt: (§2) The Glycerol Model of AKI. This is a widely used model of rhabdomyolysis-induced AKI that has been employed worldwide for 50 years. The model was used to test whether prophylactic interventions confer protection against AKI. Basically, the protocol is as follows: Male CD-1 mice (35-45 grams), obtained from Charles River Laboratories, Wilmington, Mass. were studied. Mice were maintained under standard vivarium conditions and generally housed for 1-3 weeks prior to study. The mice were placed in a cylindrical restraining cage, and then were given a tail vein injection of the test substances (see below) or test substance vehicle. The mice were then returned to their cages. Eighteen hours (hrs) later, the mice were briefly anesthetized by isoflurane inhalation, and given an intramuscular injection of hypertonic (50%) glycerol in a dose of 9 ml/Kg body weight. The dose is divided in two, with half injected into the muscle of each of the hind limbs. The mice were then returned to their cages. Eighteen hrs later, the mice were deeply anesthetized with pentobarbital (50-100 mg/Kg), the abdominal cavity was opened through a midline abdominal incision, a blood sample was obtained from the abdominal vena cava and the kidneys were resected. A kidney cross section was obtained and fixed in formalin for subsequent histologic analysis. The terminal blood samples were analyzed for BUN and creatinine, using commercially available assay kits. The remaining kidney tissue was subjected to cortical dissection, and the cortical tissues were then extracted for protein and RNA. The protein samples were saved for analysis of HO-1 levels, and the RNA samples were subjected to RT-PCR to quantify HO-1 mRNA as well as levels of other stress gene mRNAs (e.g. NGAL, haptoglobin, hemopexin, hepicidin).
(§3) Myoglobin+SnPP: To 5 mg of dry myoglobin was added 0.9 ml of PBS+0.1 ml of a stock SnPP solution (50 umole/ml). The resulting final concentrations were 5 mg/ml myoglobin+5 umoles/ml of SnPP. The tail vein was injected with 200 ul of this solution, which equals 1 mg myoglobin+1 umole SnPP. […]
Four hr post myoglobin vs myoglobin+SnPP vs SnPP alone experiments. To confirm that the myoglobin+SnPP has a synergistic effect in inducing HO-1 mRNA and HO-1 protein levels, each of the above combinations have been administered alone via tail vein injection. Four hrs later, the mice were sacrificed as noted above and the kidneys were harvested for assessment of HO-1 mRNA and protein levels. For additional information regarding methods, see Zager et al., Am J Physiol Renal Physiol. 2014 Jul. 30. Pii.
Given that it is just 4 hrs post injection, the mRNA increases are greater than the protein increases as protein synthesis must follow the mRNA induction-requiring more time.

[8] = tested on: HO-1 mRNA; experiment: Renal HO-1 mRNA (RT-PCR, HO-1/GAPDH) after IV myoglobin, SnPP or both; assay type: in vivo, CD-1 mice
Excerpt: as §2, §3
[…] To confirm that the myoglobin+SnPP has a synergistic effect in inducing HO-1 mRNA and HO-1 protein levels, each of the above combinations have been administered alone via tail vein injection. […] For additional information regarding methods, see Zager et al., Am J Physiol Renal Physiol. 2014 Jul. 30. Pii.

[9] = tested on: HO-1 protein; experiment: Renal cortex HO-1 protein (ELISA) after IV myoglobin, SnPP or both; assay type: in vivo, CD-1 mice; conditions: overnight (roughly 18 hrs) post IV; 1 mg myoglobin, 1 μmole SnPP
[10] = tested on: HK-2 cells; experiment: HK-2 cell injury by MTT assay; assay type: cell-based; conditions: 10 mg/mL, 18 hr incubation
Protocol: HK-2 cells (a proximal tubule cell line derived from normal human kidney) were incubated in keratinocyte serum free medium either under normal (control) conditions or in the presence of 10 mg/mL horse skeletal muscle myoglobin or nitrited myoglobin (produced by equimolar Na nitrite addition to 10 mg/ml myoglobin). After 18 hr incubations, the severity of cell injury (% cell death) was assessed by MTT assay. Myoglobin induced 40% cell death (40% decrease in MTT cell uptake), compared to control incubated cells. Nitrite binding to myoglobin reduced cell death by 75%. Thus, nitrite binding is able to reduce myoglobin's cytotoxic effects.

[11] = tested on: haptoglobin; experiment: Haptoglobin protein expression after SQ injection of myoglobin with or without PEG; assay type: in vivo, mice; conditions: 4 hour time point after SQ injection
Protocol: Myoglobin+PEG: To a stock solution of 20 mg/ml Mgb in PBS was added 100 mg/ml of PEG-6000; […]. This was administered as a subcutaneous injection in the dorsal neck (250 ul total injection). For combined Mgb/PEG+SnPP, SnPP was added to the above in a concentration of 3 mg/ml.

[12] = overnight (roughly 18 hrs) post IV, 1 mg myoglobin, 1 μmole SnPP

Molecule	Renal ischemic damage (BUN and plasma creatinine concentrations) [1]	Increase in renal cortical HO-1 levels over baseline ([2]; 4 hrs post 1 umole injection)	Increase in renal cortical HO-1 levels over baseline ([2]; 18 hrs post 1 umole injection)	Rise in plasma HO-1 levels ([2]; 18 hrs post 1 umole injection)	Renal cortical and plasma haptoglobin levels [3]	Renal cortical haptoglobin mRNA induction [4]	Renal cortical HO-1 mRNA induction [5]	Plasma LDH, Average [6]	Cortex HO-1 protein (ELISA), Average [7]	Cortex HO-1 protein (ELISA), individual mice [7]	HO-1/GAPDH mRNA, Average ([8]; kidney, 4 hr post IV injection)	HO-1/GAPDH mRNA, individual mice ([8]; kidney, 4 hr post IV injection)	HO-1/GAPDH mRNA, Average [8, 12]	HO-1/GAPDH mRNA, individual subjects [8, 12]	HO-1 protein induction, Average [9]	HO-1 protein induction, individual subjects [9]	Cell death (decrease in MTT cell uptake) vs control incubated cells [10]	Haptoglobin protein expression [11]
tin mesoporphyrin [SnMeP]	lessening of ischemic damage	~3 fold	~5 fold	~15 fold	stepwise increases	raised	raised											
myoglobin (protein, UniProt P68082 2-154, looked up, Lyophilized horse skeletal muscle (myoglobin) (Sigma Chemicals), a heme protein) Myoglobin: GLSDGEWQQVLNVWGKVEADIAGHGQEVLIRLFTGHPETLEKFDKFKHLKTEAEMKASEDLKKHGTVVLTALGGILKKKGHHEAELKPLAQSHATKHKIPIKYLEFISDAIIHVLHSKHPGDFGADAQGAMTKALELFRNDIAAKYKELGFQG								4.47 Absorbance U LDH/ml	45.4 ng HO-1/mg protein	40.7 ng HO-1/mg protein and 40.2 ng HO-1/mg protein and 64.7 ng HO-1/mg protein and 36.0 ng HO-1/mg protein	3.93	7.78 and 2.93 and 2.58 and 2.41	0.58	0.71 and 0.53 and 0.51	36.7	50.6 and 34.9 and 24.6	40%	32.7 ± 6.3 ng/mg ng/mg protein
